One data set concerns the target mouse DEC205 (mouse) (UniProt Q60767). The experiment in a line: cell-based or functional assay.
Data set [1] concerns the target DEC205 (CD205, LY75), mouse, surface-expressed (Mus musculus, UniProt Q60767 Q60767:28-1723). The experiment in a line: flow; apparent; A20.Kb/mDEC205 cells; RPMI + 1 mg/mL ssDNA, 37 C, 15 min; one-site fit. The conditions noted are these: tags: full-length, stably expressed on CHO (CHO/mDEC205) or A20.Kb/mDEC205 cells; label: Alexa Fluor 488 (5'); Mfold-predicted stem-loop with conserved UUCAUAA. As to the method:
The minimized aptamer, min.2 (FIG. 3a), was chemically synthesized bearing a 3′ inverted dT for added serum stability and a 5′ thiol to facilitate subsequent chemical conjugations. When labeled with Alexa Fluor 488, this chemically synthesized aptamer performed as well as constructs produced by transcription (data not shown). Direct labeling of min.2 also allowed us to measure the apparent dissociation constant of this aptamer for cell-surface mDEC205 on A20 cells (23±6 nM; FIG. 3b). The specificity of Clone 1 and high affinity of its minimized form, min.2, constitute a promising basis for using this aptamer for targeted antigen delivery.
mDEC205 Cell Surface Binding Assay: A20.Kb cells or A20.Kb.mDEC205 cells which are engineered to express higher amounts of mDEC205 were washed with RPMI, resuspended at 1×10⁵ cells in 100 μL RPMI supplemented with 1 mg/mL ssDNA, and stored on ice while Alexa Fluor 488-conjugated min.2 and Alexa Fluor 488-conjugated cntrl.36 were prepared as described previously. After addition of refolded RNA to cells, the RNA-cell mixture was incubated for 15 minutes at 37° C., washed with and resuspended in flow cytometry buffer, and analyzed by flow cytometry. […]

A value given as a limit tells only on which side of the number the result lay.

Chain of mouse DEC205 (mouse) (Q60767 28-1723): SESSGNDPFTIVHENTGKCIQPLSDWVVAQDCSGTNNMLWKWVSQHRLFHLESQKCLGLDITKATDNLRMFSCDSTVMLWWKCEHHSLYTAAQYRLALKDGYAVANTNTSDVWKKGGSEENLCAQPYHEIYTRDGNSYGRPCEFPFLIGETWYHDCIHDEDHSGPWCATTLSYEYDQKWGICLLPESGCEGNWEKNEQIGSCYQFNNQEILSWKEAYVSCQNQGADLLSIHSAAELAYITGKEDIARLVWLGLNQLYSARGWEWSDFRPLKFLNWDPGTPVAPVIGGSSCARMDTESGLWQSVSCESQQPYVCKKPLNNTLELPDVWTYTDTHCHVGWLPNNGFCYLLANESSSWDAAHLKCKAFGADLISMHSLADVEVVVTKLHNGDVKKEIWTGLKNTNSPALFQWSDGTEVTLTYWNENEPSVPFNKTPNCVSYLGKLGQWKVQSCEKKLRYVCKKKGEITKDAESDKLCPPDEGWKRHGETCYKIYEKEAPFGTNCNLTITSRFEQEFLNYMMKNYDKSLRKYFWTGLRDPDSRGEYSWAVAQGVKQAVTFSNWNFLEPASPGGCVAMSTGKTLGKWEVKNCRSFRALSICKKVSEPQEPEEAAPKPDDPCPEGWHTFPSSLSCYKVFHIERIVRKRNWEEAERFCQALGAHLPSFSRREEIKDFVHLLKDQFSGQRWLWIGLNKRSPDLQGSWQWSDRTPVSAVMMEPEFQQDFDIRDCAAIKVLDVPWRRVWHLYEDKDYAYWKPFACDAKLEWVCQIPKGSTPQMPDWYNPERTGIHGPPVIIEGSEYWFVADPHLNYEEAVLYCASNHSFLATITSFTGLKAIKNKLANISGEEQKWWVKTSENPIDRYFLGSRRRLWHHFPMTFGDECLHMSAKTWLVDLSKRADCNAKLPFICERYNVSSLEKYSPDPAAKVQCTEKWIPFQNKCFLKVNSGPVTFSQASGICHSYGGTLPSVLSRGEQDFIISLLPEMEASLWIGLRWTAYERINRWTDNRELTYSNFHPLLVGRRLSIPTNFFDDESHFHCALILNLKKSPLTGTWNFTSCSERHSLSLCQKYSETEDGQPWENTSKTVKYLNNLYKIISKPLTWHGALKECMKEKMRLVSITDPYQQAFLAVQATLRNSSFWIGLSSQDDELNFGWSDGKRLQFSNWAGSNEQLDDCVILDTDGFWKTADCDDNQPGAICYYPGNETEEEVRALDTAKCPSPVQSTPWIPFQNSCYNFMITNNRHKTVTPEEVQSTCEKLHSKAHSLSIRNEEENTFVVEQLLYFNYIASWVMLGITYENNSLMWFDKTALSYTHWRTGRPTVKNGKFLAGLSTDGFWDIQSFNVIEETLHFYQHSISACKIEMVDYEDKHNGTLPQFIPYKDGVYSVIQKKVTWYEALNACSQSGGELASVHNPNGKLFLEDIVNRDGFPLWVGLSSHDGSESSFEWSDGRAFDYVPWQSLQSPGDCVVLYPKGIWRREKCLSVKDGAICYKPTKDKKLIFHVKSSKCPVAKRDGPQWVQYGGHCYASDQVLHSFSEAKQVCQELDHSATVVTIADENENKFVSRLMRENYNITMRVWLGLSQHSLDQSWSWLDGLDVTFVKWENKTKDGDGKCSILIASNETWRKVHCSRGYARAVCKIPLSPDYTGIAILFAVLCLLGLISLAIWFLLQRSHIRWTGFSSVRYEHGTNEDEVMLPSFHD
Chain of DEC205 (CD205, LY75), mouse, surface-expressed (Q60767 28-1723, one chain of several): as the sequence (Q60767 28-1723) above

Consider “NLDC145:OVA, recombinant fusion of OVA and anti-mDEC205 antibody clone NLDC145”, for which the OT-I cell proliferation (CFSE dilution) after two days with antigen-treated CD11c+ splenocytes in the data set with mouse DEC205 (mouse) was more than 80%. As to GGGAGGUGUGUUAGCACACGAUUCAUAAUCAGCUACCCUCCC (ssRNA, 2'-F pyrimidines; 3' idT; 5' thiol C6) [min.2], the Kd in data set [1] is 23 nM.

The values above are taken from patent US20150191730A1, “APTAMER-TARGETTED ANTIGEN DELIVERY” (ALBERT EINSTEIN COLLEGE OF MEDICINE OF YESHIVA UNIVERSITY, published 2015).
